Results published in IntAct's records for PubMed 31254514.

B1: Beta-crystallin A4 (Homo sapiens), P53673 (parent)
chain: MTLQCTKSAGPWKMVVWDEDGFQGRRHEFTAECPSVLELGFETVRSLKVLSGAWVGFEHAGFQGQQYILERGEYPSWDAWGGNTAYPAERLTSFRPAACANHRDSRLTIFEQENFLGKKGELSDDYPSLQAMGWEGNEVGSFHVHSGAWVCSQFPGYRGFQYVLECDHHSGDYKHFREWGSHAPTFQVQSIRRIQQ
partner: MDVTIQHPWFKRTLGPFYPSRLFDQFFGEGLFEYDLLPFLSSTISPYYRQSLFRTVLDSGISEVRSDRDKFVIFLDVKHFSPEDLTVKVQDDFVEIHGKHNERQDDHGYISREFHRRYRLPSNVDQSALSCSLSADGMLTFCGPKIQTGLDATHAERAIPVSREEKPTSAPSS
B2: Beta-crystallin A4 (Homo sapiens), P53673 (parent)
chain: B1 chain
partner: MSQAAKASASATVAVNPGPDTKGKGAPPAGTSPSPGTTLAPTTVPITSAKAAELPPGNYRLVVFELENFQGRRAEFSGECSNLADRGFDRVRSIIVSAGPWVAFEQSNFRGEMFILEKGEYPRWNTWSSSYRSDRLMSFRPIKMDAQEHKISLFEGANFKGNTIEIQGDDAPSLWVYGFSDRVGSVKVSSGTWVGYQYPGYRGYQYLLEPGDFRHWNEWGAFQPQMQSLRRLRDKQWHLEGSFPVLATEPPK

Variants of: B1
Conditions: with cryaa_human CRYAA

Row | effect of a mutation on the interaction | Variant
1 | increasing interaction strength | MTLQCTKSAGPWKMVVWDEDGFQGRRHEFTAECPSVLELGFETVRSLKVLSGAWVGFEHAGFQWQQYILERGEYPSWDAWGGNTAYPAERLTSFRPAACANHRDSRLTIFEQENFLGKKGELSDDYPSLQAMGWEGNEVGSFHVHSGAWVCSQFPGYRGFQYVLECDHHSGDYKHFREWGSHAPTFQVQSIRRIQQ [G64W]

Variants of: B2
Conditions: with crbb1_human CRYBB1, P53674

Row | effect of a mutation on the interaction | Variant
2 | disrupting interaction strength | MTLQCTKSAGPWKMVVWDEDGFQGRRHEFTAECPSVLELGFETVRSLKVLSGAWVGFEHAGFQWQQYILERGEYPSWDAWGGNTAYPAERLTSFRPAACANHRDSRLTIFEQENFLGKKGELSDDYPSLQAMGWEGNEVGSFHVHSGAWVCSQFPGYRGFQYVLECDHHSGDYKHFREWGSHAPTFQVQSIRRIQQ [G64W]
